Laboratory results as given in patent publication US20250051821.

T1: IFF05588
T1 chain: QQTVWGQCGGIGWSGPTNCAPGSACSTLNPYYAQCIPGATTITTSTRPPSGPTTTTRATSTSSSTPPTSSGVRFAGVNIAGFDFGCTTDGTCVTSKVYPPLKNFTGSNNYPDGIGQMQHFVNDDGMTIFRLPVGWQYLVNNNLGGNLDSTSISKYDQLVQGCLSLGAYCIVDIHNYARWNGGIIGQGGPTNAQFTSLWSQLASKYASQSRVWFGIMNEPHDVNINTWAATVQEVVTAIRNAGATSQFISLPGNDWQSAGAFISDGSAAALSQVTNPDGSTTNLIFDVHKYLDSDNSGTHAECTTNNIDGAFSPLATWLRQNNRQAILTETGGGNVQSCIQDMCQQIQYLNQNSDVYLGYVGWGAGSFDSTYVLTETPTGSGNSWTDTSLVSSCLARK


Target: T1, IFF05588

Protein	Relative late peak area (centered, scaled, averaged over 5, 10 and 15 min)	Relative late peak area (centered, scaled, averaged over doses, 24 h; sample diluted 10-fold)	Relative late peak area (reverse phase chromatography, 24 h)	Relative late peak area (centered, scaled, averaged over doses, 24 h; sample diluted 2-fold)	Relative late peak area (centered, scaled, averaged over doses, 24 h; sample diluted 1-fold)
IFF21350 (protein) NLNKPVIQPNFPGNGLASLGQGILDHLAPTQSTWDDWGAGWIPQDCKSLAQGAGLSPNDIIPFNIHYADCAQTWTFCRHKNSPLSEVNIIDLFGRLPVRMRQFVRHLVFIPGNKSAGSNGDNVLMVGPVDITVFAHEIGHSLDSHAFDPSYGVPFSTGNVWVSNYNLDSAVPDPYAQSSQQENFAQHTVISIYDKAVPGGIGTIQPNWQAIFHQYATLEGYIGDIIIPGGTCTHRLTDSPPVTMASKRRALGPKPKVALSPEVEEIEAIPMKNTITMTSFDEAGKPNGSYVINL	1.55	1.06	0.61		
IFF21333 (protein) RLDKPIINPTFPGGGLDSLAQGLLDHLAPTQSTHDNWGAGYIPEDCKNLAKSNGFSPFDITPFNIHYSDCNDVWIFCRHKDSPLSQIDMIDLFGRMPVHMREYIRHVIALPGNKSAGSSGDNIQMNGAVGITVFVHETGHSLDSHGFDPKYGVPFSNSKTWLDNYNMDTAVCDSYAQSSQQENLAQETVVGLYDKVVPGGVGNIQPNWKAIFHQYATVQGYLGDILTPGGTCRHRLANSKPVPMGDSAKFRRDLGPAPDVSLSSDVIEIESIPMGSSIRITEFDEAGNPIGSKNVSLVM	0.26		0.59	0.69	
IFF21342 (protein) NLNKPVITPNFPGNGLASLGQGLMDHLAPTHSTWDDWGAGWIPADCKSMVQGAGFSPNDIIPFNIHYDDCAQSWTFCRHKNSPLSEIQILDIFGRLPVRMRQFVRHLVFVPGNKSAGSNGDNVLMVGDVDVTVFAHEIGHSLDSHAFDPSYGVPFSTGNVWVSNYNLDSAVPDPYAQSSQQENFAQETVVSLYDKVVPGGIGTIQPNWQAIFHQYATLEGYIGNVIIPGGTCTHRLTDSPPVTMSGSKKSRRALGPKPKVSLSPKVKEIEAIPMESSITMTSFDEHGRPNGTYVINL	0.12			0.73	
IFF21341 (protein) NLNKPVITPNFPGNGLASLGPGLMNNLAPTHSTWDDWGAGWIPSDCKSMVQGAGFSPNDIIPFNIHYDDCAQSWTFCRHKNSPLSEIQILDIFGRLPVRMRQFVRHLVFVPGNKSAGSNGDNVLMVGDVDVTVFAHEIGHSLDSHAFDPSYGVPFSTGNVWVSNYNLDSAVPDPYAQSSQQENFAQETVVSLYDKVVPGGIGTIQPNWQAIFHQYATLEGYIGNVIIPGGTCTHRLTDSAPVTMSGSKKSRRALGPKPKVSLSPKVKEIEAIPMESSITMTSFDEHGKPNGTYVVHL	1.03	0.62			
IFF21351 (protein) ALNKPVIQPNFPGNGLASLGQGIMQHLTPTQSTWDDWGAGWIPQDCKSIVQGAGFSPNDIIPFNIHYTDCGQTWTFCRHKNSPLSEINIIDIFGRLPVRMRQFVRHLVFVPGNKSAGSNGDNILMVGPVDVTVFIHEIGHSLDSHAFDPSYGVPFSTGNVWVSNYNLDSAVPDPYAQSSQQENFAQHTVVSIFDKVVPGGIGTIQPNWQAIFHQYATLEGYIGDTIIPGGTCTHRLTDSPPVTMASKRRGLGPKPKVALSPEVEEIESIPMKSTFKMTSFDEAGKPSGNYVINL	-0.57				0.66
IFF21332 (protein) ALNKPIINPQFPNGGLGSLGPGLMQHLQPAKRTWDKWGPGWIPEDCKNLAKSNNFSPFDITPFNIHYEDCPDSWVFCRHKDSPLSETAMIDMFGRMPVKMRSYIRHIIALPGTRSAGSAGDNIQMNGDCEITVFVHETGHSLDSHAFDPKYGAPFSNSKVWLDNYNQDSAVCDGYAQSSQQENLAQETVVGLFDKVVPGGVGTIQPNWKAIFHQYATVQGYLGDQILPGGTCSHRLTNSKPVPMGDSKKSRRGLGPAPDVSLSAHVTEIEPIAMGDSIVLTQYNDGGDAISKREVTLN	0.3		0.65	0.8	
IFF21379 (protein) QLDKPALTSNLDYLLEGNTNNLPRNGGPYWGKWADGLMPADCKSIAESQGLNPTDFEVWDIFYNDCQDGWSFCRHKDSSDSFETLVETFGRVPVRMRSWVRHILTIPGPNWAFNSNGNIALSGTTSSNLDVALHETAHSLDLLGAYGNGALSSMQEWLNAYNRDSHVPDEYARSNQVENVAQNTVVAIYDKVVPGGFPGIQPNYQRIQNQYTLVQAKAGNQILPGGTCDRHLENSDTVPMSGLSLAYKLDSEKSRGVWHDSAFKGTYMNIVKEFTPFNTQEFHH	-0.02		0.45	0.75	
IFF21348 (protein) TLNKPVIQPNFPGGGLASLGPGLLNNLAITSSTSDVWGAGWIPADCKSLVQGAGLSPFDVIPFNIHLSDCSQTWTFCRHKNSPLSQTDIINLFARVPVRMRDFIRHFVFIPGATSAGSNGDNTLMVGNVDITVFLHEIGHSLDSHAFDPSYGVPFSTGNVWVSNYNLDSAVTDSYAQTSQQENFAQETVVSVYDKVVPGGIGTIQPNWQAIFHQYATLEGYIGNTIIPGGTCVNRLTDSQPVPMGNSAKFRRTMGPKPTVSLSPDVKEIKAIPMSDSITMTSFDEFGNVNGTYVIQL	1.4	0.68			
IFF21354 (protein) RLDKPVIKPPFPNGGLGSLGPDLMSSLKVASHTTDDWDKNHLPRDCKSLAQNAGFSPLDVSAFNIHYDDCKSQPWVFCRHKDSPLSKKDMTELFGRMPVRMRQFIRHIIALPGQRSAGSSGDNIQMNGDVEITVFIHETGHSLDSHAFDPKLGAPFSNGKAWTDAYNKDSAVTDDYAQTSQQENFAQETVVSVYDKNVKGGIGKIQPNAQAIRNAYTTLEKYIGNIIIPGGVCTHRLENSPSVPKADSARTRLVPKSEPVGEGLTRIEPIAMGPITPASY	1.34	0.87	0.67		
IFF21334 (protein) ILDKPVIQPNFPGNGLASLGQGLMDNLSPTHSTWDDWGAGWIPQDCKSLVEGAGFSASDVIPFNIHYDDCAQTWTFCRHKDSPLSEITILDIFGRLPVRMRSFVRHLVFIPGNKSAGSSGDNVLMVGAVDVTVFAHEIGHSLDSHAFDPSYGVPFSTGNVWISNYNLDSAVTDPYAQTSQQENFAQETVVSLYDKVVPGGIGTIQPNWQAIYHQYATLEGYIGDVIIPGGTCTHRLTDSPPVQMSSSSKLRRALGPKPHVALSPEVEEIEAIPMKSSITMTSFDAAGKPNGTYVINL	1.38	0.97	0.65		
IFF21343 (protein) NLDKPVIQPNFPGNGLASLGQGLMDHLAPTHSTWDDWGAGWIPQDCKSMAQGAGFSANDIIPFNIHYDDCAQSWTFCRHKNSPLSELQILDIFGRLPVRMRSFVRHLVFVPGNKSAGSNGDNVLMVGAVDVTVFAHEIGHSLDSHAFDPSYGVPFSTGSVWTSNYNLDSAVPDPYAQTSQQENFAQETVVSLYDKVVPGGIGTIQPNWKAIFHQYATLQGYIGNVIIPGGTCTHRLTDSPPVTMSSAKLRRGLGPKPNVSLSPKVKEIESIPMESSITMTSFDEHGKPNGTYVVHLK	0.33			0.8	
